# Target: T1, purified recombinant Kap121p (S. cerevisiae, UniProt P32337 1-1089)
# T1 sequence (looked up): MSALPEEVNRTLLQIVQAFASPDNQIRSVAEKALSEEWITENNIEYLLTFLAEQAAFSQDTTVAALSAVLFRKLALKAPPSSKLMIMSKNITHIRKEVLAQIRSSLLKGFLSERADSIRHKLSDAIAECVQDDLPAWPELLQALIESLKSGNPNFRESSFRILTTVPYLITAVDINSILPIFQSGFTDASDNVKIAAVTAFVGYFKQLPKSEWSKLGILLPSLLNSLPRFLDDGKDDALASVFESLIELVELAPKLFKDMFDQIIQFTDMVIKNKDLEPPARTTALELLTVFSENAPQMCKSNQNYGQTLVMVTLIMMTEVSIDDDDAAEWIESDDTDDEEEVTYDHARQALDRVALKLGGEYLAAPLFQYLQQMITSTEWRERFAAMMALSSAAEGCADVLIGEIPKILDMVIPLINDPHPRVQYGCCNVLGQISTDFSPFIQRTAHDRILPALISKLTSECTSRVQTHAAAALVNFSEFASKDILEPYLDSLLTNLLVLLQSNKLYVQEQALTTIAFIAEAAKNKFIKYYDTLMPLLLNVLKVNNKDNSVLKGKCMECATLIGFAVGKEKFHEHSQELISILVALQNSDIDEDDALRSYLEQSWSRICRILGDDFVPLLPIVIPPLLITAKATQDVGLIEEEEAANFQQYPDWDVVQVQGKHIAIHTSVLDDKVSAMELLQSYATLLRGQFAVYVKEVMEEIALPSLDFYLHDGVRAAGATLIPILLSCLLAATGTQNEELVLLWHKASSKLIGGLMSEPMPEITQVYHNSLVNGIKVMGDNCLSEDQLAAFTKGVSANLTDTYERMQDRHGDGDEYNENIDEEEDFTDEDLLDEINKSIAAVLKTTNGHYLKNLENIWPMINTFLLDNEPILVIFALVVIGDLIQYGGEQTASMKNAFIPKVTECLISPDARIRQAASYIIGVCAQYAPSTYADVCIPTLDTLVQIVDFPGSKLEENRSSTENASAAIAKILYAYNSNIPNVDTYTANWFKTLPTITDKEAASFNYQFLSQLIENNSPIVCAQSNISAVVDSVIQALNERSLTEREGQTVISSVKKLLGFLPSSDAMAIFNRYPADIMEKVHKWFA
# Assay: pull-down
binder,measurement,value
"purified recombinant Nup53p (natural protein, S. cerevisiae, UniProt Q03790 1-475, looked up) MADLQKQENSSRFTNVSVIAPESQGQHEQQKQQEQLEQQKQPTGLLKGLNGFPSAPQPLFMEDPPSTVSGELNDNPAWFNNPRKRAIPNSIIKRSNGQSLSPVRSDSADVPAFSNSNGFNNVTFGSKKDPRILKNVSPNDNNSANNNAHSSDLGTVVFDSNEAPPKTSLADWQKEDGIFSSKTDNIEDPNLSSNITFDGKPTATPSPFRPLEKTSRILNFFDKNTKTTPNTASSEASAGSKEGASTNWDDHAIIIFGYPETIANSIILHFANFGEILEDFRVIKDFKKLNSKNMSKSPSLTAQKYPIYTGDGWVKLTYKSELSKSRALQENGIIMNGTLIGCVSYSPAALKQLASLKKSEEIINNKTSSQTSLSSKDLSNYRKTEGIFEKAKAKAVTSKVRNAEFKVSKNSTSFKNPRRLEIKDGRSLFLRNRGKIHSGVLSSIESDLKKREQASKSKKSWLNRLNNWLFGWNDL",binding result,binds
